Laboratory results reported in patent publication US20200317817A1 (XOMA US, published 2020).
Numbering of substitutions follows the chain as printed.

B1: XPA.85.330 (antibody, V domains shown)
VH: QMQLVQSGAEVKKPGSSVKVSCKASGGTFSSYAISWVRQAPGQGLEWMGGIIPIFGTANYAQKFQGRVTITADESTSTAYMELSSLRSEDTAVYYCARGYVVARLWGQGTLVTVSS
VL: DIVMTQTPLSLSVTPGQPASISCKSSQSLLHIDGNTYLYWYLQRPGQPPQLLIYEISNRFSGVPDRFSGSGSGTDFTLKISRVEAEDVGVYYCMQSLHFPITFGQGTRLEIK
notes: IgG; also called Ab330
B2: XPA.85.334 (antibody, V domains shown)
VH: B1 VH
VL: B1 VL with S22T, N35K, Y41F, R44K, I56V, S70T, Q105P
notes: Light-chain-shuffled variant of XPA.85.012
B3: XPA.85.343 (antibody, V domains shown)
VH: B1 VH
VL: B1 VL with I2V, N35R, R44K, P45A, I56V, L97I, I101L, Q105G, R108K
notes: as for B2
B4: XPA.85.344 (antibody, V domains shown)
VH: B1 VH
VL: DVVMTQTPLSLSVTPGQPASFSCKSTQSLLWRDGNTYLYWYLQKPGQSPQLLIYEVSGRFSGVPERFSGSGSGTDFTLEISRVEAEDVGVYYCMQSIHFPLTFGGGTKLEIK
notes: as for B2

How the values were obtained:
[1] = biological target: T1, rat PTH1R on UMR106 cells (rat, UniProt P25961 27-591); assay: cell-based or functional assay
T1 sequence (looked up): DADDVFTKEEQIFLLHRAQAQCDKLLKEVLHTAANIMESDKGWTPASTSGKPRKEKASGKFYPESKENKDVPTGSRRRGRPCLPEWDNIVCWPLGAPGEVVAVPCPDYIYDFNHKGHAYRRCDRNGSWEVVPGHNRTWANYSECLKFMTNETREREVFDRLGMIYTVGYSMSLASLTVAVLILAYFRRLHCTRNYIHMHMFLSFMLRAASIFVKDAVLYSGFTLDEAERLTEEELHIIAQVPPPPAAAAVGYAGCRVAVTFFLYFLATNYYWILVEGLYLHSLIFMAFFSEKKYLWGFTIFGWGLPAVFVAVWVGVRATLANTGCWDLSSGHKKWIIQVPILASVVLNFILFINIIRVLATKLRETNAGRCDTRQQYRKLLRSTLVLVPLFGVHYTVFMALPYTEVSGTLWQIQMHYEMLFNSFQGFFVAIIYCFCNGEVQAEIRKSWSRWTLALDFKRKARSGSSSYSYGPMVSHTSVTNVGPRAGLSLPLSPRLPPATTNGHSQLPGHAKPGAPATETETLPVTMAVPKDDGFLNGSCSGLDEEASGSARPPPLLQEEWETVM

[2] = biological target: T2, mouse PTH1R overexpressed on CHO cells (mouse, UniProt P41593 27-591); assay: cell-based or functional assay
T2 sequence (looked up): T1 sequence (looked up) with S58P, P497L, T518I, T520N, L523I, A528T

[3] = biological target: T3, human PTH1R on Saos-2 cells (endogenous) (human, UniProt Q03431 27-593); assay: cell-based or functional assay
T3 sequence (looked up): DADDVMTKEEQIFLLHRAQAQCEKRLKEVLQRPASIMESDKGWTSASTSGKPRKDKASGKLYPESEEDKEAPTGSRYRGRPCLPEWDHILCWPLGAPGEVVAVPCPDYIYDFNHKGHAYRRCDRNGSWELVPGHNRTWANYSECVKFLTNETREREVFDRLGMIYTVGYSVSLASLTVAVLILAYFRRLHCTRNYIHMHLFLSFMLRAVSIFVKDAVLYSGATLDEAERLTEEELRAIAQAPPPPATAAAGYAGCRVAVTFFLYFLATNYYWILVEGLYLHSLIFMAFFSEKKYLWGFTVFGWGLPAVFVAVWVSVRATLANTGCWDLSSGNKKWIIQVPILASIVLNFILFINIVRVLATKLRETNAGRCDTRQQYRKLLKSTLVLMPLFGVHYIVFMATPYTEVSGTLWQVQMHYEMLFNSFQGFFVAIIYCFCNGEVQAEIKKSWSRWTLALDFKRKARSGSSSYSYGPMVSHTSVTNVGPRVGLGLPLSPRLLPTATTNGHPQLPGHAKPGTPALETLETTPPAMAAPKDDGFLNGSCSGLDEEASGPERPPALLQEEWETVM

[4] = biological target: T4, human PTH1R overexpressed on CHO cells (human, UniProt Q03431 27-593); assay: cell-based or functional assay
T4 sequence (looked up): T3 sequence (looked up)

[5] = biological target: T5, recombinant N-terminal extracellular domain of the human PTH1R receptor (human, UniProt Q03431 27-188, limits assumed); assay: SPR, IgG captured, ECD injected
T5 construct: domain: N-terminal extracellular domain; Bought reagent; also called N-ECD PTH1R; PTH1R N-terminal ECD
T5 sequence (looked up): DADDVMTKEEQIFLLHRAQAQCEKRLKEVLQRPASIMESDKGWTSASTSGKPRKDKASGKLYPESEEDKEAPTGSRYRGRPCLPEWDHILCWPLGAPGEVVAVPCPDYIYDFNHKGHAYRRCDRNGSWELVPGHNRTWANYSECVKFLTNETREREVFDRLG
Procedure: An anti-human IgG-Fc CMS sensor chip (GE Healthcare) was prepared using standard amine coupling as described by the manufacturer's protocol for the capture Ab on a BIACORE 4000 system (GE Healthcare). Briefly, the chip surface was activated with a 10 minute injection at 10 μL/minute of a freshly mixed 1:1 solution of 0.1 M N-Hydroxysuccinimide (NHS) and 0.4 M 1-Ethyl-3-(3-dimethylaminopropyl) carbodiimide hydrochloride (EDC). Following the activation injection, 15 ug/mL anti-human IgG-Fc antibody in acetate pH 4.5 was injected at 10 μL/minute for 10 minutes to achieve a high density capture surface. 7 minutes of 1M Ethanolamine hydrochloride-NaOH pH 8.5 was injected to block the surface. The NHS, EDC, and Ethanolamine used were from the BIACORE Amine Coupling Kit.
Kinetic Analysis was performed using HBS-EP+(Teknova) with 2.5 mg/mL BSA (Sigma Aldrich, St. Louis Mo.). Antibodies were diluted to 0.5 μg/mL and captured to achieve a surface density of 100 to 200 RU. […] Injections were performed at 30 μL/minute for 240 seconds with a 360 second dissociation time. Regeneration was then performed with one 60 second injection 3M MgCl.
The data were analyzed using BIACORE 4000 Evaluation Software and was double referenced by subtracting both the blank flow cell data and the averaged bracketing blank injections. The data was fit by simultaneously fitting the an off-rate (kd) and on-rate (kₐ), and calculating the KD as KD=kd/kₐ.

[6] = biological target: T3, human PTH1R on Saos-2 cells (endogenous); assay: cell-based or functional assay; remark: listed apart in the source
[7] = biological target: T6, human PTH2R overexpressed on CHO cells (human, UniProt P49190 25-550); assay: flow cytometry on CHO cells overexpressing human PTH2R, 1 hr at 4 C, APC anti-human IgG
T6 construct: whole, on cells; also called CHO human PTH2R
T6 sequence (P49190 25-550): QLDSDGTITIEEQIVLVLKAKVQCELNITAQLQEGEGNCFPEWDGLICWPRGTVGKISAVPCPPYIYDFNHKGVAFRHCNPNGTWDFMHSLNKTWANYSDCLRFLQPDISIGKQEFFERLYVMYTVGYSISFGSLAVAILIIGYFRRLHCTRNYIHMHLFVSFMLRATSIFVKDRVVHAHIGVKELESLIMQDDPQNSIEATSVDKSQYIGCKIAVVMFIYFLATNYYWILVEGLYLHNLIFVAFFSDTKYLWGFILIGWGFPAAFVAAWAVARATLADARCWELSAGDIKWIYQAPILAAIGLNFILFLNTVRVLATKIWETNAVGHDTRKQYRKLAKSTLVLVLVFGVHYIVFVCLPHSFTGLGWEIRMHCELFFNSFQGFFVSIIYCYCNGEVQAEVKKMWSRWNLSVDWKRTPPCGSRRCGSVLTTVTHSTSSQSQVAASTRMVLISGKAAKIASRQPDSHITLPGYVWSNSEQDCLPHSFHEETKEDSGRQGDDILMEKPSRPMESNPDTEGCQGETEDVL
Procedure: Increasing concentrations of anti-PTH1R antibodies were added to CHO cells overexpressing human PTH2R and incubated for 1 hr at 4° C. (FIG. 8). Cells were washed twice with FACS Buffer and antibody binding was detected with anti-human IgG APC. […] Anti-KLH.G2 was used a negative control for binding.
PTH2R has a 51% homology to PTH1R. […] Following two washes, cells were incubated with Allophycocyanin (APC) AffiniPure F(ab′)₂ Fragment Goat Anti-Human IgG (H+L) (Jackson ImmunoResearch, West Grove, Pa.) for 20 minutes at 4° C. Cells were washed twice and resuspended in FACS Buffer. Samples were acquired using BD Cytometer (BD Biosciences, San Jose, Calif.) and data were analyzed using FlowJo (FlowJo, LLC, Ashland, Oreg.) and Prism (GraphPad Software, La Jolla, Calif.). […] Anti-KLH.G2 was used a negative control for binding.

[8] = biological target: T7, human PTH1R overexpressed on Saos-2 cells (human, UniProt Q03431 27-593); assay: flow cytometry on Saos-2 cells overexpressing human PTH1R, in the presence of 1 uM PTH, PE anti-human IgG
T7 construct: whole, on cells; also called Saos-2 human PTH1R cells
T7 sequence (looked up): T3 sequence (looked up)

[9] = biological target: T7, human PTH1R overexpressed on Saos-2 …; assay: flow cytometry on Saos-2 cells overexpressing human PTH1R, in the presence of 3 uM PTHrP, PE anti-human IgG
[10] = biological target: T7, human PTH1R overexpressed on Saos-2 …; assay: flow cytometry on Saos-2 cells overexpressing human PTH1R, antibody alone, PE anti-human IgG
[11] = biological target: T1, rat PTH1R on UMR106 cells; assay: cell-based or functional assay; remark: listed apart in the source
[12] = biological target: T3, human PTH1R on Saos-2 cells (endogenous); assay: cell-based or functional assay; remark: listed apart in the source
[13] = biological target: T2, mouse PTH1R overexpressed on CHO cells; assay: cell-based or functional assay; remark: listed apart in the source
[14] = biological target: T4, human PTH1R overexpressed on CHO cells; assay: cell-based or functional assay; remark: listed apart in the source
[15] = biological target: T1, rat PTH1R on UMR106 cells; assay: flow cytometry, 1 hr at 4 C

Row | Molecule | Kd [5] [nM] | koff [5] [s⁻¹] | kon [5] [M⁻¹ s⁻¹] | IC50, inhibition of PTHrP(1-34)-induced cAMP accumulation [13] [nM] | IC50, inhibition of PTH(1-34)-induced cAMP accumulation [14] [nM] | IC50, inhibition of PTHrP(1-34)-induced cAMP accumulation [14] [nM] | binding result [15] | also measured
1 | human PTHrP(1-34) (from UniProt P12272 37-70) (peptide) | – | – | – | – | – | – | – | EC50 of PTHrP(1-34), cAMP assay, vehicle only [1]: 0.333 nM; EC50 of PTHrP(1-34), cAMP assay, vehicle only [2]: 0.0431 nM
2 | Human PTH(1-34) (from UniProt P01270 32-65) (peptide) | – | – | – | – | – | – | – | EC50 of PTH(1-34), cAMP assay, vehicle only [1]: 0.647 nM; EC50 of PTH(1-34), cAMP assay, vehicle only [3]: 0.524 nM; PTH (1-34) dose response without anti-PTH1R antibody, M-CSF secretion by Saos-2 cells [3]: 1.2 nM; EC50 of PTH(1-34), cAMP assay, vehicle only [2]: 0.0306 nM; EC50 of PTH (1-34) induced ERK1/2 phosphorylation without anti-PTH1R antibody [4]: 3.8 nM; EC50 of PTH(1-34), cAMP assay, vehicle only [4]: 0.0307 nM
3 | B1 | 0.19 | 9e-05 | 470000 | 2.82 | 10.6 | 8.23 | – | EC50 of antibody, neutralization of M-CSF production induced by 12.5 nM PTHrP (1-36) [6]: 1.5 nM; fold shift of the PTHrP (1-36) dose response, M-CSF secretion by Saos-2 cells, 40 µg/mL antibody [6]: > 200 fold; binding result [7]: no binding (tested: about 160 nM); EC50 [8]: 21.7 nM; EC50 [9]: 193 nM; EC50 [10]: 3.67 nM; % inhibition of cAMP accumulation at 1 µM PTH(1-34), 267 nM IgG [11]: 55%; % inhibition of cAMP accumulation at 1 µM PTHrP(1-34), 267 nM IgG [11]: 56%; % inhibition of cAMP accumulation at 1 µM PTH(1-34), 267 nM IgG [12]: 85%; % inhibition of cAMP accumulation at 1 µM PTHrP(1-34), 267 nM IgG [12]: 89%
4 | B2 | 0.25 | 0.00021 | 860000 | 3.32 | – | 12.4 | binds | IC50, inhibition of PTH(1-34)-induced cAMP accumulation (curve does not reach a plateau) [14]: 51.2 nM
5 | B3 | 0.42 | 0.00045 | 1.1e+06 | 3.87 | 14.4 | 17.8 | binds | –
6 | B4 | 0.18 | 0.00023 | 1.3e+06 | 3.89 | 15.5 | 15.3 | binds | –
